# Test results published in IntAct's records for PubMed 22632832.
# B1: Speckle-type POZ protein (Homo sapiens), O43791 (parent)
# chain: MSRVPSPPPPAEMSSGPVAESWCYTQIKVVKFSYMWTINNFSFCREEMGEVIKSSTFSSGANDKLKWCLRVNPKGLDEESKDYLSLYLLLVSCPKSEVRAKFKFSILNAKGEETKAMESQRAYRFVQGKDWGFKKFIRRDFLLDEANGLLPDDKLTLFCEVSVVQDSVNISGQNTMNMVKVPECRLADELGGLWENSRFTDCCLCVAGQEFQAHKAILAARSPVFSAMFEHEMEESKKNRVEINDVEPEVFKEMMCFIYTGKAPNLDKMADDLLAAADKYALERLKVMCEDALCSNLSVENAAEILILADLHSADQLKTQAVDFINYHASDVLETSGWKSMVVSHPHLVAEAYRSLASAQCPFLGPPRKRLKQS
# Variants of: B1
# Conditions: with cul3_human CUL3, Q13618
row,Variant,effect of a mutation on the interaction
1,M233E,disrupting interaction strength
